Data published in patent US20220003784A1 (ASSISTANCE PUBLIQUE H PITAUX DE MARSEILLE, published 2022).

What was measured:
[1] = target: T1, Human long CD146 protein
T1 chain: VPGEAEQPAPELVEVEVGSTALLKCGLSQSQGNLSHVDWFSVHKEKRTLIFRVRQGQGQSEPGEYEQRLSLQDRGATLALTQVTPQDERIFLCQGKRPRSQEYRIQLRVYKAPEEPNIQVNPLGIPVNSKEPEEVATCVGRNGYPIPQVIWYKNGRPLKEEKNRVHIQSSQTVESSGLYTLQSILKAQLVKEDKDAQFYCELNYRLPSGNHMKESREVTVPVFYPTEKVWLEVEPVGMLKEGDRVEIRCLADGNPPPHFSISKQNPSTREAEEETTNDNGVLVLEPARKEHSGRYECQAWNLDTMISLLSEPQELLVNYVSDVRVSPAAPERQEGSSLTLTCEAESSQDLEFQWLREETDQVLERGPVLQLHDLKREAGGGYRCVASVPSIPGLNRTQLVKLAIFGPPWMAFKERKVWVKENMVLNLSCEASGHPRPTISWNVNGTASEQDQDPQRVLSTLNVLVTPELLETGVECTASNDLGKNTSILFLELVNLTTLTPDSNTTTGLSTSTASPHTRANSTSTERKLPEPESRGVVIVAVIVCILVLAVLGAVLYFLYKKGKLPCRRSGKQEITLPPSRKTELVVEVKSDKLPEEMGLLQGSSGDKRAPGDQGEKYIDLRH

[2] = target: T2, ADAM10 (UniProt O14672 214-748, limits assumed); assay: co-immunoprecipitation from ECFC in control condition (ADAM10 immunoprecipitated, CD146 isoforms detected by western blot)
T2 construct: Endogenous protein of ECFC endothelial cells
T2 sequence (looked up): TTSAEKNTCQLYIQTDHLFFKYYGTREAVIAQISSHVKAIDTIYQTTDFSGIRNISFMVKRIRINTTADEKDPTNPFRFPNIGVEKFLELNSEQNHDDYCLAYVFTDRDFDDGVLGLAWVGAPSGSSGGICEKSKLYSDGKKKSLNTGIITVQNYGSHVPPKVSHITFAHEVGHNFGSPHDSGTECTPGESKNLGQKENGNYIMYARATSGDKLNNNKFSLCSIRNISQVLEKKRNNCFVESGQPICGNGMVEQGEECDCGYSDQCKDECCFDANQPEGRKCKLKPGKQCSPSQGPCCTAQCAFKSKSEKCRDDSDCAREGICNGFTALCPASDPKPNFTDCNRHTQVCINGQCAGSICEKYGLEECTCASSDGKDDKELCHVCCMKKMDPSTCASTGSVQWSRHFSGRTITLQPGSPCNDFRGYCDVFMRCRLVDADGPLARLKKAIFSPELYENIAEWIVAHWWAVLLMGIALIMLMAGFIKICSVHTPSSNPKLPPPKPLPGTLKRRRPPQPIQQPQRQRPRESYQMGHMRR
Description: C: ADAM10 was immunoprecipitated in ECFC cultured in basal condition (EBM2). The long (IgCD146) and short (shCD146) isoforms of CD146 were then detected by western blot using specific antibodies. Results are representative of 3 different experiments.

B1: ADAM10 (protein)
chain: TTSAEKNTCQLYIQTDHLFFKYYGTREAVIAQISSHVKAIDTIYQTTDFSGIRNISFMVKRIRINTTADEKDPTNPFRFPNIGVEKFLELNSEQNHDDYCLAYVFTDRDFDDGVLGLAWVGAPSGSSGGICEKSKLYSDGKKKSLNTGIITVQNYGSHVPPKVSHITFAHEVGHNFGSPHDSGTECTPGESKNLGQKENGNYIMYARATSGDKLNNNKFSLCSIRNISQVLEKKRNNCFVESGQPICGNGMVEQGEECDCGYSDQCKDECCFDANQPEGRKCKLKPGKQCSPSQGPCCTAQCAFKSKSEKCRDDSDCAREGICNGFTALCPASDPKPNFTDCNRHTQVCINGQCAGSICEKYGLEECTCASSDGKDDKELCHVCCMKKMDPSTCASTGSVQWSRHFSGRTITLQPGSPCNDFRGYCDVFMRCRLVDADGPLARLKKAIFSPELYENIAEWIVAHWWAVLLMGIALIMLMAGFIKICSVHTPSSNPKLPPPKPLPGTLKRRRPPQPIQQPQRQRPRESYQMGHMRR
reduction of sCD146 secretion by ECFC under TNF after ADAM10 siRNA [1]: ADAM10 and Tace siRNA reduced sCD146 secretion by 60% and 25%, respectively | sCD146 secretion by ECFC in control condition after siRNA [1]: only ADAM10 siRNA was able to inhibit sCD146 secretion and that the effect was similar to that of GM6001 | sCD146 secretion by a CHO clone stably expressing lgCD146 after transfection with an ADAM10 plasmid [1]: in the presence of ADAM10, sCD146 secretion was significantly increased

B2: Human short CD146 protein (other)
chain: VPGEAEQPAPELVEVEVGSTALLKCGLSQSQGNLSHVDWFSVHKEKRTLIFRVRQGQGQSEPGEYEQRLSLQDRGATLALTQVTPQDERIFLCQGKRPRSQEYRIQLRVYKAPEEPNIQVNPLGIPVNSKEPEEVATCVGRNGYPIPQVIWYKNGRPLKEEKNRVHIQSSQTVESSGLYTLQSILKAQLVKEDKDAQFYCELNYRLPSGNHMKESREVTVPVFYPTEKVWLEVEPVGMLKEGDRVEIRCLADGNPPPHFSISKQNPSTREAEEETTNDNGVLVLEPARKEHSGRYECQAWNLDTMISLLSEPQELLVNYVSDVRVSPAAPERQEGSSLTLTCEAESSQDLEFQWLREETDQVLERGPVLQLHDLKREAGGGYRCVASVPSIPGLNRTQLVKLAIFGPPWMAFKERKVWVKENMVLNLSCEASGHPRPTISWNVNGTASEQDQDPQRVLSTLNVLVTPELLETGVECTASNDLGKNTSILFLELVNLTTLTPDSNTTTGLSTSTASPHTRANSTSTERKLPEPESRGVVIVAVIVCILVLAVLGAVLYFLYKKGKLPCRRSGKQEMERNTSI
notes: Endogenous membrane isoform in ECFC, detected by western blot in immunoprecipitates from cell lysates; also expressed from a plasmid in CHO cells; also called shCD146; short isoform of CD146
binding result [2]: no binding
